The assay has as its target H3(1-282)-strep tag Ⅱ-NGL (monkeypox virus (MPXV)). Nature of the assay: BLI; […]; PBS; 100 s association, 120 s dissociation; global fit. Particulars: both partners purified.

B1: AI-Poxblock723-strep tag Ⅱ-His8 (designed binder)
chain: MGLKKLQELKKKANELGKKAKEALDKGDFEKAKEYIKKGAEATKEYGELSGNKAAIEDGEKAEEVAEEIVKIAKEEKAKERSGGGGSGGGGS
notes: source: E. coli BL21(DE3), pET30a, purified (STarm Streptactin), exchanged into PBS
Turning to B1, the dissociation constant (Kd) was determined as 9 µM.

For the origin of these results see publication doi:10.1101/2024.06.26.600898 (bioRxiv, 2024).
